In US20210147829A1, “VARIANT NUCLEOTIDE LIBRARY” (The University of Manchester, priority 2017, published 2021):

Tests used:
[1] = Liquid phase kinetic assay of purified MAO-N variants, substrate N-amylamine; type: biochemical
Procedure: (§1) Selected variants were overexpressed by BL21 (DE3) E. coli strain in 700 mL of LB medium with 100 μg mL^−1 ampicillin. 0.5 mM of IPTG was introduced to the culture when OD600 reached 0.6 and the culture was incubated at 25° C., 180 rpm. Cells were harvested after 16-20 hours and purified using 5 mL Histrap FF crude column (GE Healthcare) with an AKTA Explorer 100 protein purification system as described (55).
(§2) A range of amine stock solutions including α-methylbenzylamine, N-amylamine, butylamine, benzylamine or cyclohexylamine (all from Sigma) were prepared in 0.1 M potassium phosphate pH 7.7. The final concentration range of the substrate was between 0.5 mM to 100 mM. A colourimetric assay solution was made up by dissolving Pyrogallol red (0.3 mM final concentration) in 0.1 M potassium phosphate, pH 7.7. The assay was conducted by combining 35 μL of substrate solution, 50 μL of Pyrogallol red solution and 5 μL of horseradish peroxidase (1 mg mL^−1) in a flat bottom 96-well plate and started by adding 110 μL of purified MAO-N. Assay progress was monitored at 550 nm at 25° C. in a Molecular Devices Spectramex M2 plate reader. The data were analysed using Prism7 (GraphPad) which was also used to calculate kinetic parameters such as kcat, km and Vmax.

[2] = Liquid phase kinetic assay of purified MAO-N variants, substrate benzylamine; type: biochemical
Procedure: as §1, §2

[3] = Liquid phase kinetic assay of purified MAO-N variants, substrate butylamine; type: biochemical
Procedure: as §1, §2

[4] = cited from earlier work; for kcat, substrate AMBA: Table 3
[5] = MAO-N variant activity to native primary amine substrates (taken together); type: biochemical; settings: range over native substrates
Procedure: as §1, §2

[6] = Liquid phase kinetic assay of purified MAO-N variants, substrate α-methylbenzylamine; type: biochemical; settings: Table 4; kcat for α-methylbenzylamine
Procedure: as §1, §2

[7] = Table 4, α-methylbenzylamine, Reference {Alexeeva 2002}

Molecule | kcat, substrate AA ([1]; Table 3) [s⁻¹] | kcat N-amylamine (AA) ([1]; Table 5) [s⁻¹] | kcat, substrate BZA ([2]; Table 3) [s⁻¹] | kcat Benzylamine (BZA) ([2]; Table 5) [s⁻¹] | kcat, substrate BTA ([3]; Table 3) [s⁻¹] | kcat Butylamine (BTA) ([3]; Table 5) [s⁻¹] | kcat, substrate AMBA ([4]; Reference {Alexeeva 2002}) [s⁻¹] | kcat [4, 7] [s⁻¹] | kcat towards α-MBA ([4]; wild type, literature value) [s⁻¹] | kcat for several primary amine substrates ('wild type speed') [5] [s⁻¹] | Improvement over wild type [6] | Km [4, 7] [µM]
WT: Wild type monoamine oxidase-N (MAO-N, A. niger), an amine-oxidising biocatalyst (protein, UniProt P46882 1-495, looked up) Monoamine oxidase N: MTSRDGYQWTPETGLTQGVPSLGVISPPTNIEDTDKDGPWDVIVIGGGYCGLTATRDLTVAGFKTLLLEARDRIGGRSWSSNIDGYPYEMGGTWVHWHQSHVWREITRYKMHNALSPSFNFSRGVNHFQLRTNPTTSTYMTHEAEDELLRSALHKFTNVDGTNGRTVLPFPHDMFYVPEFRKYDEMSYSERIDQIRDELSLNERSSLEAFILLCSGGTLENSSFGEFLHWWAMSGYTYQGCMDCLISYKFKDGQSAFARRFWEEAAGTGRLGYVFGCPVRSVVNERDAARVTARDGREFAAKRLVCTIPLNVLSTIQFSPALSTERISAMQAGHVNMCTKVHAEVDNKDMRSWTGIAYPFNKLCYAIGDGTTPAGNTHLVCFGTDANHIQPDEDVRETLKAVGQLAPGTFGVKRLVFHNWVKDEFAKGAWFFSRPGMVSECLQGLREKHRGVVFANSDWALGWRSFIDGAIEEGTRAARVVLEELGTKREVKARL | 6.45 | 6.45 | 4.37 | 4.37 | 6.57 | 6.57 | 0.00283 | 0.00283 | 0.00283 | 4.37 to 6.57 | – | –
D1 N336S: MAO-N variant D1 with mutation N336S, Reference {Alexeeva 2002} (protein, UniProt P46882 1-495, looked up, variant N336S) Monoamine oxidase N: MTSRDGYQWTPETGLTQGVPSLGVISPPTNIEDTDKDGPWDVIVIGGGYCGLTATRDLTVAGFKTLLLEARDRIGGRSWSSNIDGYPYEMGGTWVHWHQSHVWREITRYKMHNALSPSFNFSRGVNHFQLRTNPTTSTYMTHEAEDELLRSALHKFTNVDGTNGRTVLPFPHDMFYVPEFRKYDEMSYSERIDQIRDELSLNERSSLEAFILLCSGGTLENSSFGEFLHWWAMSGYTYQGCMDCLISYKFKDGQSAFARRFWEEAAGTGRLGYVFGCPVRSVVNERDAARVTARDGREFAAKRLVCTIPLNVLSTIQFSPALSTERISAMQAGHVSMCTKVHAEVDNKDMRSWTGIAYPFNKLCYAIGDGTTPAGNTHLVCFGTDANHIQPDEDVRETLKAVGQLAPGTFGVKRLVFHNWVKDEFAKGAWFFSRPGMVSECLQGLREKHRGVVFANSDWALGWRSFIDGAIEEGTRAARVVLEELGTKREVKARL | – | – | – | – | – | – | 0.133 | 0.133 | – | – | 40-fold | 400
